Target: the molecule itself
Assay: SEC

| Protein | stoichiometry N |
| --- | --- |
| C-His-Rv2135c (enzyme, also called C-His-Rv2315c; not shown: His6, C-terminal, kept) MTVILLRHARSTSNTAGVLAGRSGVDLDEKGREQATGLIDRIGDLPIRAVASSPMLRCQRTVEPLAEALCLEPLIDDRFSEVDYGEWTGRKIGDLVDEPLWRVVQAHPSAAVFPGGEGLAQVQTRAVAAVREHDRRLADQHGHDVLWLACTHGDVIKAVIADAFGMHLDSFQRITADPGSVSVVRYTQLRPFVLHVNHTGARLAPALQAAASAQGASPEPNAAVPPGDAVIGGSTD | 4 |
| C-His-Rv0489 (enzyme, also called C-His-Rv0489c; cofactor dependent phosphoglycerate mutase of M. tuberculosis; not shown: His6, C-terminal, kept) MANTGSLVLLRHGESDWNALNLFTGWVDVGLTDKGQAEAVRSGELIAEHDLLPDVLYTSLLRRAITTAHLALDSADRLWIPVRRSWRLNERHYGALQGLDKAETKARYGEEQFMAWRRSYDTPPPPIERGSQFSQDADPRYADIGGGPLTECLADVVARFLPYFTDVIVGDLRVGKTVLIVAHGNSLRALVKHLDQMSDDEIVGLNIPTGIPLRYDLDSAMRPLVRGGTYLDPEAAAAGAAAVAGQGRG | 2 |

From publication PMC3866925, “Functional characterization of two members of histidine phosphatase superfamily in Mycobacterium tuberculosis” (BMC Microbiology, 2013)
